Reference: patent EP4574844A1 (Numab Therapeutics AG, dated 2025)
One block for each binder: values may come before it.

Columns and labels:
recombinant human PDL1 [1] = target: T1, recombinant human PDL1 (human, UniProt Q9NZQ7 19-238, limits assumed); assay: SPR
T1 construct: SPR antigen; also called CD274; B7-H1

[2] = target: T2, recombinant cynomolgus PDL1 (cynomolgus monkey, UniProt G7PSE7 19-238); assay: SPR
T2 construct: also called cynom; PDL1

[3] = target: T3, human PD-L1 on the cell surface (human, UniProt Q9NZQ7 19-290); assay: cell-based or functional assay
[4] = target: T4, human LILRB2 on the cell surface (human, UniProt Q8N423 22-597); assay: cell-based or functional assay
T4 sequence (Q8N423 22-597): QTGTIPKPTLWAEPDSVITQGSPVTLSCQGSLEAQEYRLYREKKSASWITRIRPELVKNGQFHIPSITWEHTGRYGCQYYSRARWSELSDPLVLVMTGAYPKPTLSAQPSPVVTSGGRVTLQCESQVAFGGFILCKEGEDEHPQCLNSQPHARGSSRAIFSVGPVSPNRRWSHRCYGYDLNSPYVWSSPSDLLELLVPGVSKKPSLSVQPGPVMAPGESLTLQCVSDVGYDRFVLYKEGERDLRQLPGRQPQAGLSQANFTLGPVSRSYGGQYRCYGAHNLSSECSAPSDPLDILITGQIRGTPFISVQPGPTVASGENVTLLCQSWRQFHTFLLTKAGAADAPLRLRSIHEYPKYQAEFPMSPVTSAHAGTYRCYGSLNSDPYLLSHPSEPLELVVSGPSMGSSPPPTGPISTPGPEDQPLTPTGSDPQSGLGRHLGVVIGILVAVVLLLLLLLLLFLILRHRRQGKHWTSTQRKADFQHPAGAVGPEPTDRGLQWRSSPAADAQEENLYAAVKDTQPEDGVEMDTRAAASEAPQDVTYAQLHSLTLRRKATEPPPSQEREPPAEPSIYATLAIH

[5] = target: T4, human LILRB2 on the cell surface; assay: cell-based or functional assay; remark: listed apart in the source
[6] = target: T3, human PD-L1 on the cell surface; assay: cell-based or functional assay; remark: listed apart in the source
[7] = target: human CD47 on the cell surface (human, UniProt Q08722 19-323); assay: cell-based or functional assay
recombinant human CD47 = recombinant human CD47 (human, UniProt Q08722 19-139, limits assumed); assay: SPR, antigen immobilised, antibody as analyte
recombinant human PDL1 [8] = target: T1, recombinant human PDL1; assay: SPR, antigen immobilised, antibody as analyte
recombinant human LILRB2 = target: T5, recombinant human LILRB2 (human, UniProt Q8N423 22-460, limits assumed); assay: SPR, antibody captured by anti-framework IgG, antigen as analyte (without avidity)
T5 construct: also called ILT4
T5 sequence (Q8N423 22-460 limits assumed): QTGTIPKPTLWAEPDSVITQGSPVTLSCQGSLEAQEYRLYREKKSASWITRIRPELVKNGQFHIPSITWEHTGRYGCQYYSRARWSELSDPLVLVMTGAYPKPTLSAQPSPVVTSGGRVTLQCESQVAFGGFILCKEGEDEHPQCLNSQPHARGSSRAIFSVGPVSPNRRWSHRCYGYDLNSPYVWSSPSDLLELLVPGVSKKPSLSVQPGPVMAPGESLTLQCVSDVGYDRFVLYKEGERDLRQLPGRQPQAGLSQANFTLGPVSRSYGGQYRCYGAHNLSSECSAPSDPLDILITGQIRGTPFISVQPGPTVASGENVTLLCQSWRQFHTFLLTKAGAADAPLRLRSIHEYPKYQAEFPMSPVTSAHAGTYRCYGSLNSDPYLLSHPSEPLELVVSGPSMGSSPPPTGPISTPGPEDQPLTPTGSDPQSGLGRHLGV

T2 sequence (G7PSE7 entry or part of it): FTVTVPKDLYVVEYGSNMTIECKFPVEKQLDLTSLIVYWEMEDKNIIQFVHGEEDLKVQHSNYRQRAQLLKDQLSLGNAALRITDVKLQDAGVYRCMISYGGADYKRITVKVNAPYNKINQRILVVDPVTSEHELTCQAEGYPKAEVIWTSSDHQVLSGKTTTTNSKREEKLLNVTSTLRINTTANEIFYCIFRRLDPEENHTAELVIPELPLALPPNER

B1: PRO4245 (scFv)
scFv: DIQMTQSPSSLSASVGDRVTITCQASQSIGTYLAWYQQKPGKPPKLLIYRGGILASGVPSRFSGSGSGTDFTLTISSLQPEDFATYYCQSNFYSDSTTIGPNAFGTGTKVTVLGGGGGSGGGGSGGGGSGGGGSQQLVESGGGLVQPGGSLRLSCAASGFSFNSDYWIYWVRQAPGKGLEWIASIYGGSSGNTQYASWAQGRFTISKDNSKNTVYLQMNSLRAEDSAVYFCARGYVDYGGATDLWGQGTLVKVSS
notes: anti-PDL1 scFv
- Kd (recombinant human PDL1 [1]): 0.036 nM
- koff (recombinant human PDL1 [1]): 0.00014 s⁻¹
- kon (recombinant human PDL1 [1]): 4e+06 M⁻¹ s⁻¹
- Kd [2]: 0.032 nM
- koff [2]: 0.00014 s⁻¹
- kon [2]: 4.6e+06 M⁻¹ s⁻¹
- PDL1/PD-1 EC50 [nM], NFAT reporter gene assay [3]: 1.81 nM
- PDL1/PD-1 Max. inhibition (rel. to avelumab) [%] [3]: 106%

B2: PRO2230 (scFv)
scFv: DIQMTQSPASLSASVGDRVTITCQASQSIGTYLAWYQQKPGKPPKLLIYRAFILASGVPSRFSGSGSGTDFTLTISSLQPEDFATYYCQSNFYSDSTTIGPNAFGTGTKVTVLGGGGGSGGGGSGGGGSGGGGSEVQLVESGGGLVQPGGSLRLSCAASGFSFNSDYWIYWVRQAPGKGLEWIASIYGGSSGNTQYASWAQGRFTISRDNSKNTVYLQMNSLRAEDTAVYFCARGYVDYGGATDLWGQGTLVTVSS
notes: anti-PDL1 scFv; also called 37-20-B03-sc09.1
- Kd (recombinant human PDL1 [1]): 0.015 nM
- koff (recombinant human PDL1 [1]): 9.3e-05 s⁻¹
- kon (recombinant human PDL1 [1]): 6.3e+06 M⁻¹ s⁻¹
- Kd [2]: 0.012 nM
- koff [2]: 8.4e-05 s⁻¹
- kon [2]: 7e+06 M⁻¹ s⁻¹
- PDL1/PD-1 EC50 [nM], NFAT reporter gene assay [3]: 0.93 nM
- PDL1/PD-1 Max. inhibition (rel. to avelumab) [%] [3]: 91.8%

B3: PRO3891 (scFv)
scFv: DIQMTQSPSSLSASVGDRVTITCQASQSINDYLAWYQQKPGKAPKLLIYKGGTLASGVPSRFSGSGSGTDFTLTISSLQPEDFATYYCQQGYIITDIDNVFGTGTKVTVLGGGGGSGGGGSGGGGSGGGGSQVQLQESGPGLVKPSETLSLTCKASGFSFSSGYDMCWVRQPPGKGLEWIACVVAGSVDITYYASWAKGRVTISKDSSKNQVSLKLSSVTAADSAVYYCARKDAYSDAFNLWGQGTLVKVSS
notes: anti-PDL1 scFv
- Kd (recombinant human PDL1 [1]): 0.0041 nM
- koff (recombinant human PDL1 [1]): 3.9e-05 s⁻¹
- kon (recombinant human PDL1 [1]): 6e+06 M⁻¹ s⁻¹
- Kd [2]: 0.0034 nM
- koff [2]: 2.9e-05 s⁻¹
- kon [2]: 5.9e+06 M⁻¹ s⁻¹
- PDL1/PD-1 EC50 [nM], NFAT reporter gene assay [3]: 1.36 nM
- PDL1/PD-1 Max. inhibition (rel. to avelumab) [%] [3]: 94.6%

Results, then the binder that gave them:

- CD86 EC50 [nM], re-polarization of M2 macrophages [4]: 0.078 nM
- CD163 EC50 [nM], re-polarization of M2 macrophages [4]: 0.07 nM
- CD206 EC50 [nM], re-polarization of M2 macrophages [4]: 0.124 nM
- IL-1β EC50 [nM], LPS-driven cytokine secretion [5]: 0.205 nM
- IL-6 EC50 [nM], LPS-driven cytokine secretion [5]: 0.097 nM
- TNF-α EC50 [nM], LPS-driven cytokine secretion [5]: 0.175 nM
- PD-L1 driven EC50 [nM], phagocytosis of H292 cells [6]: 0.043 nM
- CD47 driven EC50 [nM], phagocytosis of H292 cells [7]: 8.62 nM
- Kd (recombinant human CD47): 25.2 nM
- koff (recombinant human CD47): 0.0204 s⁻¹
- kon (recombinant human CD47): 811000 M⁻¹ s⁻¹
- Kd (recombinant human PDL1 [8]): 0.0885 nM
- koff (recombinant human PDL1 [8]): 0.000116 s⁻¹
- kon (recombinant human PDL1 [8]): 1.31e+06 M⁻¹ s⁻¹
- Kd (recombinant human LILRB2): 0.36 nM
- koff (recombinant human LILRB2): 9.3e-05 s⁻¹
- kon (recombinant human LILRB2): 260000 M⁻¹ s⁻¹
B4: PRO4687 (antibody, human IgG1, kappa)
chain: DVQMTQSPSSLSASVGDRVTITCQASQSISSWVSWYQQKPGKPPKLLIYRGGYLESGVPSRFSASGSGTDFTLTISSLQPEDFATYYCQSTDSSTYGGAFGCGTKVTVLGGGGGSGGGGSGGGGSGGGGSQQVVESGGGLVQPGGSLRLSCAVSGIDLNSYAMTWVRQAPGKCLEWIGYIGSASSTYYASWASGRFTISKDNSKNTVYLQMNSLRAEDSAVYFCARGSTYINIWGQGTLVKVSSEPKSSDKTHTCPPCPAPELLGGPSVFLFPPKPKDTLMISRTPEVTCVVVDVSHEDPEVKFNWYVDGVEVHNAKTKPREEQYNSTYRVVSVLTVLHQDWLNGKEYKCKVSNKALPAPIEKTISKAKGQPREPQVYTLPPCREEMTKNQVSLSCAVKGFYPSDIAVEWESNGQPENNYKTTPPVLDSDGSFFLVSKLTVDKSRWQQGNVFSCSVMHEALHNHYTQKSLSLSPGKGGGGSGGGGSDVQMTQSPSSLSASVGDRVTITCQASQSIGSNLAWYQQKPGKPPKLLIYKGGTLESGVPSRFSGSGSGTDFTLTISSLQPEDFATYYCQSTAGSSRSGNYGYVFGCGTKVTVLGGGGGSGGGGSGGGGSGGGGSQQLVESGGGLVQPGGSLRLSCAASGFSFTNNYYMCWVRQAPGKCLEWIACMLVGAWGNTYYASWANGRFTISKDNSKNTVYLQMNSLRAEDSAVYFCARARDYTWTLGGDPETSGFNLWGQGTLVKVSS
heavy: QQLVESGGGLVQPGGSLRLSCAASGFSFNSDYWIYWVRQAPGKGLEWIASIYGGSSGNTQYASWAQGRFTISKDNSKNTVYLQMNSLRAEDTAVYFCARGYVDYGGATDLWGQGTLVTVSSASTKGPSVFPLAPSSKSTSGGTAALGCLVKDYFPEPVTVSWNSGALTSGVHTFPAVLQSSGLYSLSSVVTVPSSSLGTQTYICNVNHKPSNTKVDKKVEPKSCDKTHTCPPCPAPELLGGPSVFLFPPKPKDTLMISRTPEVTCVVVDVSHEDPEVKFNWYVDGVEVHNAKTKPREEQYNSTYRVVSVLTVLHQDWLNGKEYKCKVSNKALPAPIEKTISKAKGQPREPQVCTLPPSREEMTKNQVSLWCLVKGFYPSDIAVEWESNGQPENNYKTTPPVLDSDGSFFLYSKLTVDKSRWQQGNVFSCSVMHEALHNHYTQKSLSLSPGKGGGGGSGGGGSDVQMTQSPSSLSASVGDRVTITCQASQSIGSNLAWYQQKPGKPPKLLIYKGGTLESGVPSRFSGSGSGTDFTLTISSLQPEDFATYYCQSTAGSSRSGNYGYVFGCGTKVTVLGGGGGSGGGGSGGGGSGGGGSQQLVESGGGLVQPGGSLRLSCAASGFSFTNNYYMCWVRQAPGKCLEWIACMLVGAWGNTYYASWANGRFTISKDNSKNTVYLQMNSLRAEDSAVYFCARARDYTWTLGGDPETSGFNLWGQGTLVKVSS
light: DIQMTQSPSSLSASVGDRVTITCQASQSIGTYLAWYQQKPGKPPKLLIYRGGILASGVPSRFSGSGSGTDFTLTISSLQPEDFATYYCQSNFYSDSTTIGPNAFGQGTKVEIKRTVAAPSVFIFPPSDEQLKSGTASVVCLLNNFYPREAKVQWKVDNALQSGNSQESVTEQDSKDSTYSLSSTLTLSKADYEKHKVYACEVTHQGLSSPVTKSFNRGEC
notes: trispecific anti-PDL1 x CD47 x LILRB2; PDL1-BD (37-20-B03-sc18) as Fab

- PD-L1 driven EC50 [nM], phagocytosis of H292 cells [6]: 0.08 nM
- CD47 driven EC50 [nM], phagocytosis of H292 cells [7]: 13.5 nM
B5: PRO4688 (antibody, human IgG1, kappa)
chain: DVQMTQSPSSLSASVGDRVTITCQASQSISSWVSWYQQKPGKPPKLLIYRGGYLESGVPSRFSASGSGTDFTLTISSLQPEDFATYYCQSTDSSTYGGAFGCGTKVTVLGGGGGSGGGGSGGGGSGGGGSQQVVESGGGLVQPGGSLRLSCAVSGIDLNSYAMTWVRQAPGKCLEWIGYIGSASSTYYASWASGRFTISKDNSKNTVYLQMNSLRAEDSAVYFCARGSTYINIWGQGTLVKVSSEPKSSDKTHTCPPCPAPELLGGPSVFLFPPKPKDTLMISRTPEVTCVVVDVSHEDPEVKFNWYVDGVEVHNAKTKPREEQYNSTYRVVSVLTVLHQDWLNGKEYKCKVSNKALPAPIEKTISKAKGQPREPQVYTLPPCREEMTKNQVSLSCAVKGFYPSDIAVEWESNGQPENNYKTTPPVLDSDGSFFLVSKLTVDKSRWQQGNVFSCSVMHEALHNHYTQKSLSLSPGKGGGGSGGGGSDIQMTQSPSSLSASVGDRVTITCQSSESVYSNNQLSWYQQKPGQPPKLLIYDASDLASGVPSRFSGSGSGTDFTLTISSLQPEDFATYYCAGGFSSSSDTAFGCGTKLTVLGGGGGSGGGGSGGGGSGGGGSEVQLVESGGGLVQPGGSLRLSCAASGFSLSSNAMGWVRQAPGKCLEYIGIISVGGFTYYASWAKGRFTISRDNSKNTVYLQMNSLRAEDSATYFCARDRHGGDSSGAFYLWGQGTLVKVSS
heavy: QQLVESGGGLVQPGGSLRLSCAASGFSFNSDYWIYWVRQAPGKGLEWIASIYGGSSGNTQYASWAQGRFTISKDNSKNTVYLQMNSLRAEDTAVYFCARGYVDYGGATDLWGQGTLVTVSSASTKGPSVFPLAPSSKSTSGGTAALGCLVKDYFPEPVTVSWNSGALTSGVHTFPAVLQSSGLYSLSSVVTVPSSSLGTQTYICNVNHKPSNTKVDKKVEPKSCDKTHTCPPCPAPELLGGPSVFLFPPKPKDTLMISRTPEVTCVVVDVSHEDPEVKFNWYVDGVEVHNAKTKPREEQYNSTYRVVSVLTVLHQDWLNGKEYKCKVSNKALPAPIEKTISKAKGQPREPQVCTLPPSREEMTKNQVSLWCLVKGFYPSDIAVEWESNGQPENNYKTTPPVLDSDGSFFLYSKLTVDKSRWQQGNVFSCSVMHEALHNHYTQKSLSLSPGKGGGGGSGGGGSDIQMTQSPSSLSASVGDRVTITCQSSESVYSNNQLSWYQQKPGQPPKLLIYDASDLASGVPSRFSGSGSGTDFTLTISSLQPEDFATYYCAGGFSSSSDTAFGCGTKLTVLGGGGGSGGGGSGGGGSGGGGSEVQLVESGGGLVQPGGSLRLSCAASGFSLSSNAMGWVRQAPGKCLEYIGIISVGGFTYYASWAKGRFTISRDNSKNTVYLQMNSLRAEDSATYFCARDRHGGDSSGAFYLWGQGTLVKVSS
light: B4 light
